Test results published in publication PMC9569322, “Determination of the boundary lipids of sticholysins using tryptophan quenching” (Scientific Reports, 2022).

B1: Sticholysin I (StnI), wild type (natural protein, Stichodactyla helianthus, UniProt P81662 1-176, looked up)
chain: SELAGTIIDGASLTFEVLDKVLGELGKVSRKIAVGIDNESGGTWTALNAYFRSGTTDVILPEVVPNTKALLYSGRKSSGPVATGAVAAFAYYMSNGNTLGVMFSVPFDYNWYSNWWDVKIYPGKRRADQGMYEDMYYGNPYRGDNGWYQKNLGYGLRMKGIMTSAGEAKMQIKISR
notes: Sticholysin I (StnI), actinoporin of the sea anemone Stichodactyla helianthus; also called StnI WT; source: E. coli RB791, purified to homogeneity
B2: StnI-I7C/K68C^ox (oxidized double-Cys mutant of sticholysin I) (natural protein, Stichodactyla helianthus, UniProt P81662 1-176, looked up)
chain: SELAGTCIDGASLTFEVLDKVLGELGKVSRKIAVGIDNESGGTWTALNAYFRSGTTDVILPEVVPNTCALLYSGRKSSGPVATGAVAAFAYYMSNGNTLGVMFSVPFDYNWYSNWWDVKIYPGKRRADQGMYEDMYYGNPYRGDNGWYQKNLGYGLRMKGIMTSAGEAKMQIKISR
modifications: disulfide bridge between C7 and C68 (oxidized form)
notes: Sticholysin I (StnI) of Stichodactyla helianthus with I7C and K68C, made by site-directed mutagenesis; the disulfide holds the N-terminal alpha-helix on the beta-sandwich; Used oxidized; also called StnI CC; source: E. coli RB791, purified to homogeneity
B3: Sticholysin II (StnII), wild type (natural protein, Stichodactyla helianthus, UniProt P07845 1-175, looked up)
chain: ALAGTIIAGASLTFQVLDKVLEELGKVSRKIAVGIDNESGGTWTALNAYFRSGTTDVILPEFVPNTKALLYSGRKDTGPVATGAVAAFAYYMSSGNTLGVMFSVPFDYNWYSNWWDVKIYSGKRRADQGMYEDLYYGNPYRGDNGWHEKNLGYGLRMKGIMTSAGEAKMQIKISR
notes: Sticholysin II (StnII), actinoporin of the sea anemone Stichodactyla helianthus; also called StnII WT; StnII-WT; source: E. coli RB791, purified to homogeneity
B4: StnII-I6C/K67C^ox (oxidized double-Cys mutant of sticholysin II) (natural protein, Stichodactyla helianthus, UniProt P07845 1-175, looked up)
chain: ALAGTCIAGASLTFQVLDKVLEELGKVSRKIAVGIDNESGGTWTALNAYFRSGTTDVILPEFVPNTCALLYSGRKDTGPVATGAVAAFAYYMSSGNTLGVMFSVPFDYNWYSNWWDVKIYSGKRRADQGMYEDLYYGNPYRGDNGWHEKNLGYGLRMKGIMTSAGEAKMQIKISR
modifications: disulfide bridge between C6 and C67 (oxidized form)
notes: Sticholysin II (StnII) of Stichodactyla helianthus with I6C and K67C, made by site-directed mutagenesis; the disulfide prevents the deployment of the N-terminal alpha-helix; Used oxidized; also called StnII CC; source: E. coli RB791, purified to homogeneity

Target: the molecule itself
Experiment: cross-linking

Protein | binding result
B1 | binds
B2 | binds
B3 | binds
B4 | binds
